For some assays here: Variants at the floor of the assay were thinned out.
B1: TPR 5TU (parent)
chain: GGAUCUUCUCGAUCUAACAAAAAAGACAAAUCUGCCACAAAGCUUGAGAGCAUCUUCGGAUGCAGAGGCGGCAGCCUUCGGUGGCGCGAUAGCGCCAACGUUCUCAACUAUGACACGCAAAACGCGUGCUCCGUUGAAUGGAGUUUAUCAUG
B2: TPR t1 (parent)
chain: GACCAAUCUGCCCUCAGAGCUCGAGAACAUCUUCGGAUGCAGAGGAGGCAGGCUUCGGUGGCGCGAUAGCGCCAACGUCCUCAACCUCCAAUGCAUCCCACCACAUGAUGAUGCCUGAAGAGCCUUGGUUUUUUG

Variants of: B1
Test: polymerase ribozyme fitness, log enrichment relative to wild type (log ratio); higher = more active; in vitro selection for triplet polymerase activity
Outline: (§1)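 Mutant libraries of both subunits of a heterodimeric triplet polymerase ribozyme were PCR-built, transcribed, and selected once in triplicate, with frozen incubation at −7 °C and capture of gel-excised extended constructs on streptavidin beads before RT-PCR. Illumina sequencing of input and output libraries was filtered to genotypes with ≥10 input reads and ≥1 read per output. Fitness is the logarithm of genotype enrichment over wild-type enrichment, using inverse-variance-weighted replicate averages. The logarithm is base 2.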

Row | Variant | polymerase ribozyme fitness (log ratio)
1 | A3C A17C A19U G25C C93U A115G A120U | ≤ -4.2
2 | A3C G34C G48C A106U A138G A150G | ≤ -4.2
3 | A3C C85U G136C | -3.76
4 | A3C A47U | -0.813
5 | A3C C5U G62C | -1.89
6 | A3C A41G G50C U53G G67U G86C G128U C129U U146G C149U | ≤ -4.2
7 | A3C A16G A24U G48U G74U G83A A107C U130A | ≤ -4.2
8 | A3C C5A A52C G65U C99G G133C | ≤ -4.2
9 | A3C G68U C93A | ≤ -4.2
10 | A3C C8G U9G G59A C87A G92C G117C G133U | ≤ -4.2
11 | A3C A17G C69G C116G A122G | -1.99
12 | A3C A47C G59C G86A | -3.89
13 | A3C C79U C93U C95U | ≤ -4.2
14 | A3C C10G G62U G68C C87U A107C C123U G128A A137C U139C | ≤ -4.2
15 | A3C A23U A41C C43U U61A A64C C96U A107C A115G | ≤ -4.2
16 | A3C A22U A49U A52G U56A | -3.02
17 | A3C A22U A37G C54G C57U C85U G88C G117C C129U | ≤ -4.2
18 | A3C A121U | 0.339
19 | A3C A12G C87G | -3.93
20 | A3C A47G A52G C87U C96U C99U G124A | -4.19
21 | A3C A23C G74A C85A C103U U130A | ≤ -4.2
22 | A3C G58U C76U G84A C85U G94A | -2.53
23 | A3C A12U G58C C118U | -1.52
24 | A3C C57U C93A | -1.56
25 | A3C G58A G94A | -0.578
26 | A3C C14G C27U C85U U144G | -2.9
27 | A3C G11A A19C C54U A122U U135A G143A | -3.73
28 | A3C G141U | 0.471
29 | A3C U4A G71U G88A | ≤ -4.2
30 | A3C C51G U55G C75U C118A | ≤ -4.2

Variants of: B2
Test: as above
Outline: as §1

Row | Variant | polymerase ribozyme fitness (log ratio)
31 | A6U C53U G61C G77C C104A | -2.75
32 | C20U C28A G93U G110C | -4.8
33 | G51U U87A G107U C115A A121U | -7.71
34 | A6G C11G G17C G36C C97U | -5.22
35 | C31G U112A | -5.33
36 | G45C U55G G69U G107A | -5.92
37 | C11G C12A G51A C80A U116G | -5.92
38 | A41C G117U | -2.87
39 | C8G G44A U92A C97U | -2.59
40 | A66U G93C C114G | -5.41
41 | G10C A103U C123U | -5.06
42 | U14G A95U | -2.44
43 | A2C A24G A29C G47U G120A | -5.73
44 | U38A G120A | -0.255
45 | A2G G61A | 0.0396
46 | G39U A41U A95C G117U | -4.57
47 | C53A U55A C70U | -0.287
48 | G10U A83U | -0.308
49 | C114A G128C | -3.78
50 | A2G U9C C13U A18U C56G C72G A95G | -4.64
51 | A24U G60A | -4.63
52 | U38A C89G C114A C123A U131G | -4.1
53 | C3U U9G G45A G51U C53G C123A | -5.27

Row | Variant | polymerase ribozyme fitness (log ratio)
54 | G63A C80A | -4.42
55 | C62U C97G U132A | -3.9
56 | C13U G45U U55C C70U G93U | -3.96
57 | C13G G61A C94G U116A | -6.69
58 | C89G G93A C94G C124G G128C | -7.66
59 | A2G C13U A46U C86A G113U G120U C123G | -4.13
60 | C13U C56U A90G | 0.402
61 | C8A U30C G69U A118U G120A U129G | -1.47
62 | C70G C85A C123U U130A U133C | -3.14
63 | A5U G35U | -5.72
64 | C40G G110A U132A | -1.48
65 | C97U G113A | -1.5
66 | C28U G61C | -4.7
67 | G36U G51C G69U | -2.55
68 | U30A G48C G57A C124G | -4.73
69 | A2G G120A | 0.359
70 | G61A C62U | -1.86
71 | C8A A91C G117C | -2.17
72 | C53G G57C G63C | -0.44
73 | G39U C73U | -1.52
74 | U33C G60U | -3.44
75 | C72A G107U | -3.81
76 | G19A G47A C88U | -2.72

Row | Variant | polymerase ribozyme fitness (log ratio)
77 | G36C C49G C102A U125A | -4.36
78 | C4A U112A | 0.26
79 | C40U C80U C86U A91C U112G | -3.87
80 | C22A C76U | -4.72
81 | C8A U133G | 0.0303
82 | C20G C114G C115U | -6
83 | C20G C123A | -4.02
84 | A50U G63A U106A G135C | -2.47
85 | G93A C102U | -2.73
86 | C88A C115U | -0.599
87 | C3G C40G C72U A121G U130G | -0.331
88 | C8U U59A C94U A119U | -0.404
89 | A41C G58A C72U | -0.757
90 | G48U U78C U92A A105U A121U | -5.76
91 | G35U C72A | -5.07
92 | A37U C104U U116C | -0.911
93 | G60U C104U U116A | -2.99
94 | G71U U81G U112A | -5.24
95 | C72U C85U U109A A121G | -4.72
96 | C70U C104G | -7.05
97 | U9G C13A U59A C72A | -1.53
98 | A18U A24G C72U C73U | -4.35
99 | A27C C76A | -5.92

Row | Variant | polymerase ribozyme fitness (log ratio)
100 | G48U G61U G93U U112A C124A | -0.694
101 | A46U G110A | -2.4
102 | U33A G58A | -5.07
103 | G113A C115U | -3.6
104 | G52U C56A C99U | -4.58
105 | G69U U87A G127U U130A G135U | -2.93
106 | A18U A111G U129A | -4.75
107 | A5G C15U C72A C101U C124U | 0.428
108 | C20U G39A G110U G128A | -5.92
109 | C8G G10U G69U A95U C102A C114G U129G | -2.33
110 | C73G C101U U112C G117C | -2.53
111 | C11U U38A G120C | 0.779
112 | G57U C88U A108G | -3.61
113 | G42A G69A | -5.77
114 | C34G C70U U96A A103U A121C U132C | -7.51
115 | C20A C49U C72U U78C | -3.44
116 | G36A G48U A84G | -2.02
117 | A27G C53G | -1.84
118 | G58C C70U | -0.846
119 | A46U C73U C123G G127A | -1.5
120 | A46U G52U A66G C104U G110A | -5.89
121 | C70A U106A | -1.51
122 | A5G G52U U92C C114G | -5.18

Row | Variant | polymerase ribozyme fitness (log ratio)
123 | A29G G58C | -1.5
124 | C53U C102U | -2.44
125 | C11G A43G C85A C89G C94U | -2.52
126 | C72U A91C G127A | -2.46
127 | C13A C49U C53G U112C | -2.14
128 | A18C A100C | -4.31
129 | C34A G48U A121U | -1.3
130 | G39U C98U | -1.66
131 | G19U A43U G60C C82G | -3.71
132 | C56G G77U C115G | -3.16
133 | U14A C101U | -3.07
134 | G60U A105C | -1.6
135 | G58A C86U | -0.881
136 | A43U C49U U59C C70U C115U | -5.6
137 | C11A G45A G61A | -1.68
138 | C13A G36C G69C | -2.94
139 | A50C C62U C94U | -0.553
140 | C8U A43G C89G C98U G135U | -4.02
141 | G44U G71A U130G | -3.31
142 | C56G C64A U106C C114U | -6.98
143 | C70U A90C U92C C102A G120C U132A | -5.71
144 | U38G U54A | -0.658
145 | G61U C82A G107A | -5.28

Row | Variant | polymerase ribozyme fitness (log ratio)
146 | G47A G58U G110U G120A | -3.22
147 | C99U C115G | -4.9
148 | C13U G69A C88U | -2.75
149 | C12U C56A C73A U78C A111G U129G | -1.25
150 | G57A G61A A90G C124A | 0.849
151 | C28G C73U C97U | -3.34
152 | A5C A26U | -5
153 | C13A U112G A121G | -1.42
154 | C8A G52A | -0.0157
155 | A6C G35A | -4.12
156 | U14C | -1.23
157 | C13U A37U | 0.687
158 | G47C U55C C56A G69U C86U C123A U132A | -1.54
159 | C88A U106A U109A U126A U131G | -5.92
160 | G69C G113C | -4.05
161 | U9C A16G G57C G110C | -4.22
162 | U33C C62U C99U C115U | -6.64
163 | C8U C72G A84U U87C U92G | -4.49
164 | C64U C70G C79U A111U U112A C124A | -5.81
165 | A6U C115U | -1.06
166 | C15A C72U | -2.75
167 | G63A C73U U130G | -0.938
